Experimental data published in US20140057332A1, “GLUCO-OLIGOSACCHARIDE OXIDASES FROM ACREMONIUM STRICTUM AND USES THEREOF” (The Governing Council of the University of Toronto, priority 2011, published 2014).
Where a chain is given by its changes, count along the chain named. In names and notes the source's numbering stands.

Assays:
[1] = Effect of deglycosylation with PNGaseF on enzyme activity; assay type: biochemical; conditions: 10 mM maltose, 15 min at 37° C., duplicate; for Activity, Deglycosylated: deglycosylated with PNGaseF (native conditions); for Activity, Glycosylated: glycosylated enzyme
Experimental: Approximately 2 μg of purified enzyme was treated with PNGaseF (New England Biolabs) using denaturing and native conditions. Samples that were deglycosylated using denaturing conditions were analysed by SDS PAGE, while samples deglycosylated using native conditions were used to evaluate the impact of glycosylation on enzyme activity. The activity of enzymes was measured on 10 mM maltose at 37° C. for 15 min. (Table 7). N-glycosylation was predicted by NetNGlyc (http://www.cbs.dtu.dk/services/NetNGlyc/) while O-glycosylation was predicted by OGPET (http://ogpet.utep.edu/OGPET/).

[2] = Kinetic analyses, all tested substrates; assay type: biochemical; conditions: all tested monosaccharides and oligosaccharides
Experimental: (§1) A chromogenic assay was used to measure hydrogen peroxide production (15). Reactions contained 0.1 mM 4aminoantipyrine (4AA), 1 mM phenol, 0.5 U horseradish peroxidase, 40 mM Tris-HCl (pH 8.0), and different substrates were initiated by adding 0.2 μg of enzymes to the 250 μL reaction mixture. The production of H2O2 was coupled to the oxidation of 4aminoantipyrine by horseradish peroxidase and detected at 500 nm. Reactions were incubated at 37° C. for 15 min to measure the specific activity of GOOX on 10 mM of monosaccharide or 1 mM of oligosaccharide.
(§2) At least 12 substrate concentrations were included to obtain kinetic parameters for each substrate. Initial rates were obtained by measuring reaction products every 30 s for 15 min at 37° C. and pH 8.0, and kinetic parameters were calculated using the Michaelis-Menten equation (GraphPad Prism5 Software).

[3] = Chromogenic H2O2 oxidase assay on mannose
Experimental: as §1
(§3) An additional eight mutations, identified as Y72F, Y72A, E247A, E314A, W351A, N388S, Q353N, Q384A, were created in GOOX-VN to assess the influence of these residues on the substrate selectivity of GOOX-VN. […] The specific activity of each mutant was then measured at 37° C. for 15 min using 10 mM mono-sugars and 1 mM oligosaccharides as performed for Y300A, Y300N, and W351F (Table 11).

[4] = substrate: CC(=O)N[C@H]1C(O)O[C@H](CO)[C@@H](O)[C@@H]1O; assay: purified protein, by the assay type; conditions: other: 37° C., pH 8.0
Experimental: as §1, §2

[5] = substrate: OC1OC[C@@H](O)[C@H](O)[C@H]1O; assay: purified protein, by the assay type; conditions: other: 37° C., pH 8.0
Experimental: as §1, §2

[6] = substrate: OC1OC[C@@H](O[C@@H]2OC[C@@H](O)[C@H](O)[C@H]2O)[C@H](O)[C@H]1O; assay: purified protein, by the assay type; conditions: other: 37° C., pH 8.0
Experimental: as §1, §2

[7] = substrate: OC1OC[C@@H](O[C@@H]2OC[C@@H](O[C@@H]3OC[C@@H](O)[C@H](O)[C@H]3O)[C@H](O)[C@H]2O)[C@H](O)[C@H]1O; assay: purified protein, by the assay type; conditions: other: 37° C., pH 8.0
Experimental: as §1, §2

[8] = substrate: OC[C@H]1OC(O)[C@H](O)[C@@H](O)[C@@H]1O; assay: purified protein, by the assay type; conditions: other: 37° C., pH 8.0
Experimental: as §1, §2

[9] = substrate: OC[C@H]1O[C@@H](O[C@H]2[C@H](O)[C@@H](O)C(O)O[C@@H]2CO)[C@H](O)[C@@H](O)[C@@H]1O; assay: purified protein, by the assay type; conditions: other: 37° C., pH 8.0
Experimental: as §1, §2

[10] = substrate: OC[C@H]1O[C@@H](O[C@H]2[C@H](O)[C@@H](O)[C@H](O[C@H]3[C@H](O)[C@@H](O)C(O)O[C@@H]3CO)O[C@@H]2CO)[C@H](O)[C@@H](O)[C@@H]1O; assay: purified protein, by the assay type; conditions: other: 37° C., pH 8.0
Experimental: as §1, §2

[11] = substrate: OC[C@H]1O[C@H](O[C@H]2[C@H](O)[C@@H](O)C(O)O[C@@H]2CO)[C@H](O)[C@@H](O)[C@@H]1O; assay: purified protein, by the assay type; conditions: other: 37° C., pH 8.0
Experimental: as §1, §2

[12] = Chromogenic H2O2 oxidase assay / kinetic analysis on NAG; conditions: for Specific activity Defined substrate concentration: 10 mM NAG, 37° C., 15 min; for Specific activity From Vmax: substrate NAG
Experimental: as §1, §2

[13] = Chromogenic H2O2 oxidase assay / kinetic analysis on xylose; conditions: for Specific activity Defined substrate concentration: 10 mM xylose, 37° C., 15 min; for Specific activity From Vmax: substrate xylose
Experimental: as §1, §2

[14] = Chromogenic H2O2 oxidase assay / kinetic analysis on glucose; conditions: for Specific activity From Vmax: substrate glucose
Experimental: as §1, §2

[15] = Chromogenic H2O2 oxidase assay / kinetic analysis on maltose; conditions: for Specific activity Defined substrate concentration: 1 mM maltose, 37° C., 15 min; for Specific activity From Vmax: substrate maltose
Experimental: as §1, §2

[16] = Chromogenic H2O2 oxidase assay / kinetic analysis on galactose; conditions: for Specific activity From Vmax: substrate galactose
Experimental: as §1, §2

[17] = Chromogenic H2O2 oxidase assay / kinetic analysis on xylobiose; conditions: for Specific activity Defined substrate concentration / Specific Activity of Enzyme Variants: 1 mM xylobiose, 37° C., 15 min; for Specific activity From Vmax: substrate xylobiose
Experimental: as §1, §2

[18] = Chromogenic H2O2 oxidase assay / kinetic analysis on cellobiose; conditions: for Specific activity Defined substrate concentration / Specific Activity of Enzyme Variants: 1 mM cellobiose, 37° C., 15 min; for Specific activity From Vmax: substrate cellobiose
[19] = Chromogenic H2O2 oxidase assay / kinetic analysis on xylotriose; conditions: for Specific activity Defined substrate concentration / Specific Activity of Enzyme Variants: 1 mM xylotriose, 37° C., 15 min; for Specific activity From Vmax: substrate xylotriose
Experimental: as §1, §2

[20] = Chromogenic H2O2 oxidase assay / kinetic analysis on cellotriose; conditions: for Specific activity Defined substrate concentration / Specific Activity of Enzyme Variants: 1 mM cellotriose, 37° C., 15 min; for Specific activity From Vmax: substrate cellotriose
Experimental: as §1, §2

[21] = substrate: OC[C@H]1OC(O)[C@H](O)[C@@H](O)[C@H]1O; assay: purified protein, by the assay type; conditions: other: 37° C., pH 8.0
Experimental: as §1, §2

[22] = Chromogenic H2O2 oxidase assay on xylohexaose; conditions: 1 mM xylohexaose; 37° C., 15 min
Experimental: as §1, §3

[23] = Chromogenic H2O2 oxidase assay on xylotetraose; conditions: 1 mM xylotetraose; 37° C., 15 min
Experimental: as §1, §3

[24] = Chromogenic H2O2 oxidase assay on xylopentaose; conditions: 1 mM xylopentaose; 37° C., 15 min
Experimental: as §1, §3

[25] = 10 mM galactose, 37° C., 15 min

B1: Acremonium strictum gluco-oligosaccharide oxidase GOOX-VN variant 2 Y300N, SEQ ID NO. 7 (Sarocladium strictum; A38V/S388N/Y300N) (protein)
chain: NSINACLAAADVEFHEEDSEGWEMDGTAFNLRVDYDPVAIAIPRSTEDIAAAVQCGLDAGVQISAKGGGHSYGSYGFGGEDGHLMLELDRMYRVSVDDDNVATIQGGARLGYTALELLDQGNRALTHGTCPAVGIGGHVLGGGYGFATHTHGLTLDWLVGATVVLADASIVHVSKTENADLFWALRGGGGGFAIVSEFEFNTFEAPEIITTYQVTTTWNRKQHVAGLKALQDWAENTMPRELSMRLEINANALNWEGNYFGNAKDLKKVLQPIMKKAGGKSTISKLVETDWYGQINTYLNGADLNITYNYDVHEYFYANSLTAPRLSDEAISAFVDYKFDNSSVRPGRGWWIQWDFHGGKNSALASHSNDETAYAHRDQLWLWQFYDNIYDYENNTSPYPESGFEFMQGFVATIEDTLPEDRKGKYFNYADTTLDKEEAQKLYWRGNLEKLQAIKAKYDPEDVFGNVVSVEPIA
In the case of B1, the “Activity, Deglycosylated” value [1] is reported as 2.78 nmol/min, the “Activity, Glycosylated” value [1] is reported as 2.6 nmol/min and the “catalytic activity (kcat) relative to GOOX-VN” value [2] is reported as “approximately two times higher”. For the same molecule, the “activity on mannose (in words)” value [3] was “low activity”, the “Specific activity Defined substrate concentration” value ([3]; 10 mM mannose, 37° C., 15 min) was 0.19 µmol/mg/min and the Km [4] was 55.95 ± 1.93 mM. It also gave a Km [5] of 32.01 ± 1.67 mM, a Km [6] of 4.83 ± 0.17 mM and a Km [7] of 4.32 ± 0.25 mM. The Km [8] was 3.11 ± 0.12 mM, the Km [9] was 0.38 ± 0.02 mM and the Km [10] was 0.44 ± 0.01 mM. For the same molecule, the Km [11] was 19.61 ± 0.66 mM, the kcat [11] was 10.4 ± 0.105 s⁻¹ and the kcat/Km [11] was 530 ± 18.3 M⁻¹ s⁻¹. For the same molecule, the “Specific activity Defined substrate concentration” value [12] was 1.5 µmol/mg/min, the “Specific activity From Vmax” value [12] was 11.22 µmol/mg/min and the “Specific activity Defined substrate concentration” value [13] was 2.32 µmol/mg/min. For the same molecule, the “Specific activity From Vmax” value [13] was 11.48 µmol/mg/min, the “Specific activity Defined substrate concentration” value ([14]; 10 mM glucose, 37° C., 15 min) was 8.32 µmol/mg/min and the “Specific activity From Vmax” value [14] was 10.70 µmol/mg/min. For the same molecule, the “Specific activity Defined substrate concentration” value [15] was 0.49 µmol/mg/min, the “Specific activity From Vmax” value [15] was 10.30 µmol/mg/min and the “Specific activity Defined substrate concentration” value [16, 25] was 0.95 µmol/mg/min. The “Specific activity From Vmax” value [16] was 11.64 µmol/mg/min, the “Specific activity Defined substrate concentration” value [17] was 1.83 µmol/mg/min and the “Specific activity From Vmax” value [17] was 11.84 µmol/mg/min. For the same molecule, the “Specific activity Defined substrate concentration” value [18] was 8.15 µmol/mg/min, the “Specific activity From Vmax” value [18] was 11.29 µmol/mg/min and the “Specific activity Defined substrate concentration” value [19] was 2.00 µmol/mg/min. The “Specific activity From Vmax” value [19] was 11.85 µmol/mg/min, the “Specific activity Defined substrate concentration” value [20] was 6.90 µmol/mg/min and the “Specific activity From Vmax” value [20] was 9.88 µmol/mg/min.

B2: Acremonium strictum gluco-oligosaccharide oxidase GOOX-VN variant 3 W351F, SEQ ID NO. 8 (Sarocladium strictum; A38V/S388N/W351F) (protein)
chain: B1 chain with N300Y, W351F
In the case of B2, the “Activity, Deglycosylated” value [1] is reported as 3.19 nmol/min, the “Activity, Glycosylated” value [1] is reported as 3.13 nmol/min and the Km [6] is reported as 0.35 ± 0.01 mM. For the same molecule, the kcat [6] was 7.96 ± 0.0583 s⁻¹, the kcat/Km [6] was 23000 ± 683 M⁻¹ s⁻¹ and the Km [7] was 0.31 ± 0.01 mM. It also gave a kcat [7] of 7.885 ± 0.0717 s⁻¹, a kcat/Km [7] of 25700 ± 867 M⁻¹ s⁻¹ and a Km [8] of 31.05 ± 1.33 mM. For the same molecule, the Km [21] was 36.12 ± 1.30 mM, the Km [9] was 0.08 ± 0.00 mM and the kcat [9] was 5.74 ± 0.0833 s⁻¹. It also gave a kcat/Km [9] of 69000 ± 1000 M⁻¹ s⁻¹, a Km [10] of 0.11 ± 0.01 mM and a kcat [10] of 5.25 ± 0.107 s⁻¹. The kcat/Km [10] was 47300 ± 4420 M⁻¹ s⁻¹, the Km [11] was 4.96 ± 0.23 mM and the kcat [11] was 5.38 ± 0.0733 s⁻¹. For the same molecule, the kcat/Km [11] was 1080 ± 51.7 M⁻¹ s⁻¹, the “Specific activity Defined substrate concentration” value [12] was 0.1 µmol/mg/min and the “Specific activity From Vmax” value [12] was 7.71 µmol/mg/min. The “Specific activity Defined substrate concentration” value [13] was 0.15 µmol/mg/min, the “Specific activity From Vmax” value [13] was 4.57 µmol/mg/min and the “Specific activity Defined substrate concentration” value ([14]; 10 mM glucose, 37° C., 15 min) was 1.31 µmol/mg/min. For the same molecule, the “Specific activity From Vmax” value [14] was 5.57 µmol/mg/min, the “Specific activity Defined substrate concentration” value [15] was 0.84 µmol/mg/min and the “Specific activity From Vmax” value [15] was 5.33 µmol/mg/min. The “Specific activity Defined substrate concentration” value [16, 25] was 1.30 µmol/mg/min, the “Specific activity From Vmax” value [16] was 6.49 µmol/mg/min and the “Specific activity Defined substrate concentration” value [17] was 5.93 µmol/mg/min. For the same molecule, the “Specific activity From Vmax” value [17] was 7.88 µmol/mg/min, the “Specific activity Defined substrate concentration” value [18] was 5.10 µmol/mg/min and the “Specific activity From Vmax” value [18] was 5.68 µmol/mg/min. The “Specific activity Defined substrate concentration” value [19] was 5.95 µmol/mg/min, the “Specific activity From Vmax” value [19] was 7.81 µmol/mg/min and the “Specific activity Defined substrate concentration” value [20] was 4.62 µmol/mg/min. For the same molecule, the “Specific activity From Vmax” value [20] was 5.20 µmol/mg/min.

B3: E247A: GOOX-VN mutant with E247A substitution (protein)
chain: B1 chain with E247A, N300Y
With B3 the “Specific Activity of Enzyme Variants” value [22] was 5.1 µmol/min/mg, the “Specific Activity of Enzyme Variants” value [23] was 5.3 µmol/min/mg and the “Specific Activity of Enzyme Variants” value [24] was 5.2 µmol/min/mg. For the same molecule, the “Specific Activity of Enzyme Variants” value ([14]; 10 mM glucose, 37° C., 15 min) was 0.4 µmol/min/mg, the “Specific Activity of Enzyme Variants” value [17] was 4.2 µmol/min/mg and the “Specific Activity of Enzyme Variants” value [18] was 2.2 µmol/min/mg. The “Specific Activity of Enzyme Variants” value [19] was 3.5 µmol/min/mg and the “Specific Activity of Enzyme Variants” value [20] was 2.7 µmol/min/mg.

B4: W351A: GOOX-VN mutant with W351A substitution (protein)
chain: B1 chain with N300Y, W351A
With B4 the “Specific Activity of Enzyme Variants” value [22] was 0.5 µmol/min/mg, the “Specific Activity of Enzyme Variants” value [23] was 0.3 µmol/min/mg and the “Specific Activity of Enzyme Variants” value [24] was 0.3 µmol/min/mg. For the same molecule, the “Specific Activity of Enzyme Variants” value [16, 25] was 0.3 µmol/min/mg, the “Specific Activity of Enzyme Variants” value [17] was 0.1 µmol/min/mg and the “Specific Activity of Enzyme Variants” value [18] was 0.6 µmol/min/mg. For the same molecule, the “Specific Activity of Enzyme Variants” value [19] was 0.1 µmol/min/mg and the “Specific Activity of Enzyme Variants” value [20] was 1.1 µmol/min/mg.
